{"source": "paper PMC3357558", "binders": {"B1": {"name": "SLP-76 (natural protein)", "chain": "MALRNVPFRSEVLGWDPDSLADYFKKLNYKDCEKAVKKYHIDGARFLNLTENDIQKFPKLRVPILSKLSQEINKNEERRSIFTRKPQVPRFPEETESHEEDNGGWSSFEEDDYESPNDDQDGEDDGDYESPNEEEEAPVEDDADYEPPPSNDEEALQNSILPAKPFPNSNSMYIDRPPSGKTPQQPPVPPQRPMAALPPPPAGRNHSPLPPPQTNHEEPSRSRNHKTAKLPAPSIDRSTKPPLDRSLAPFDREPFTLGKKPPFSDKPSIPAGRSLGEHLPKIQKPPLPPTTERHERSSPLPGKKPPVPKHGWGPDRRENDEDDVHQRPLPQPALLPMSSNTFPSRSTKPSPMNPLPSSHMPGAFSESNSSFPQSASLPPYFSQGPSNRPPIRAEGRNFPLPLPNKPRPPSPAEEENSLNEEWYVSYITRPEAEAALRKINQDGTFLVRDSSKKTTTNPYVLMVLYKDKVYNIQIRYQKESQVYLLGTGLRGKEDFLSVSDIIDYFRKMPLLLIDGKNRGSRYQCTLTHAAGYP"}}, "key": {"[1]": {"target": "ITK-BTK((SH3)): ITK whose SH3 domain is replaced with the SH3 domain of BTK, fluorescent protein chimera (UniProt P35991)", "sequence (P35991 whole entry, stated change not applied, the tested form may be a part)": "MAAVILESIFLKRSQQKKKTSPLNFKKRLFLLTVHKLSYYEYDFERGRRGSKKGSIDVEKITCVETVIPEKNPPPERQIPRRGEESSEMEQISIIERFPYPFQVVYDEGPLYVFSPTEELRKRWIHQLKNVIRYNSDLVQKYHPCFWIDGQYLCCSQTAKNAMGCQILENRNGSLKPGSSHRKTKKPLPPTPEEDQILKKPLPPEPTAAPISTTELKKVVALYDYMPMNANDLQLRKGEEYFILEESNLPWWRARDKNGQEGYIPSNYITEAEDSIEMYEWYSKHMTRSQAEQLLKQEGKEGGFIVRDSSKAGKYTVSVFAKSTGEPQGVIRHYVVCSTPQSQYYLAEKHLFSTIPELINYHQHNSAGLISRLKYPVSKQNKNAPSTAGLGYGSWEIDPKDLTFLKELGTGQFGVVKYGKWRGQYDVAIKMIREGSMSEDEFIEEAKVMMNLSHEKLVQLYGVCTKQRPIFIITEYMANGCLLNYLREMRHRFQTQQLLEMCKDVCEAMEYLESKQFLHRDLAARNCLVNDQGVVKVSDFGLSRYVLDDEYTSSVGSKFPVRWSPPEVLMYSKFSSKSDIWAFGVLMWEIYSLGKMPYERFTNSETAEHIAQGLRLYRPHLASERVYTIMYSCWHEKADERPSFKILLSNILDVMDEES", "assay": "co-IP; Jurkat (JTag) cells transfected with GFP-ITK constructs, stimulated or not with 5 ug/mL anti-CD3e OKT3 cross-linked with rabbit anti-mouse IgG for 1 minute at 37°C, lysed; FP-ITK immunoprecipitated with anti-GFP IgG; SLP-76 and ITK immunoblotted; association index by densitometry against the nonstimulated lane"}, "[2]": {"target": "ITK-BTK((SH3)): ITK whose SH3 domain is replaced with the SH3 domain of BTK, fluorescent protein chimera (UniProt P35991)"}}, "data": [{"binder": "B1", "values": [{"measurement": "reduction of the ITK-SLP-76 association against wild-type ITK", "setting": "[1]", "result": 32, "unit": "%"}, {"measurement": "TCR-induced tyrosine phosphorylation of ITK-BTK(SH3) in transfected Jurkat cells (anti-ITK IP, antiphosphotyrosine blot), reduction in signal intensity against wild type ITK", "setting": "[2]", "result": 15, "unit": "%"}]}]}
